Reference: patent US20170360931A1 (UNIVERSITY OF CHICAGO, published 2017)

Experiments:
Assay in all cases: cell-based or functional assay
[1] = target: HA of A/California/04/2009 (H1N1) virus (influenza A virus A/California/04/2009 …)
[2] = target: HA of wild type A/Shanghai/1/2013 (H7N9) virus (influenza A virus A/Shanghai/1/2013 …)
[3] = target: HA of A/chicken/Jalisco/12283/12 (H7N3) virus (influenza A virus …)

B1: 045-051310-2B06 (antibody, V domains shown)
VH: QVQLVQSGPEMKKPGASVKVSCKTSGYRFTRYGISWVRQAPGRGLEWLGWISAYSGDTYYGQKFQDRVTMTTDRATSTAYMELRNLGSDDSAVYFCARDHVQGEVSIYYYAMDVWGEGTTVTVSS
VL: EIVLTQSPATLSLSPGERVTLSCRASESVGNKLAWFQQRPGQAPRLLIYNASNRATDIPARFSGSGSGTDFTLTISSLQPEDFAVYYCQQRGTWPRGLITFGQGTRLEIK
[1]
  PRNT50 (plaque reduction assay): 5.5 µg/mL
[2]
  PRNT50 (plaque reduction assay): 19 µg/mL
[3]
  PRNT50 (plaque reduction assay): 18 µg/mL
